In US20220119534A1 (DRAGONFLY THERAPEUTICS, published 2022):
Several values for one entry are separate records, joined by “and”; a condition that tells them apart may be missing. Equal values may be shown once.

How the values were obtained:
mFc-hNKG2D [1] = biological target: T1, mFc-hNKG2D (human, UniProt P26718 73-216); experiment: SPR Biacore 8K 37 C; mFc-hNKG2D captured on anti-mFc chip, TriNKET as analyte; 1:1 kinetic fit; average of 4
T1 construct: extracellular domain; Made in house (Dragonfly Tx); the order of tag and ECD follows the name mFc-hNKG2D; also called mFc-tagged human NKG2D; not shown: mouse Fc tag
T1 sequence (looked up): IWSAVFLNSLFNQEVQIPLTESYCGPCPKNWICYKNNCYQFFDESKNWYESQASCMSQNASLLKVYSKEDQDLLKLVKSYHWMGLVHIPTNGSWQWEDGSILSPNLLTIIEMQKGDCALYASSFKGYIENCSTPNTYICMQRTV

Human CLEC12A-His [2] = biological target: T2, Human CLEC12A-His (human, UniProt Q5QGZ9 65-265); experiment: SPR Biacore 8K 37 C; TriNKET captured on anti-hFc chip, hCLEC12A-His as analyte; 1:1 fit; un-oxidized control, n=2
T2 construct: Recombinant soluble protein made in house (Dragonfly Tx); The hCLEC12A spot of the HuProt array is written under this molecule as well; also called hCLEC12A-His; hCLEC12A; not shown: His tag
T2 sequence: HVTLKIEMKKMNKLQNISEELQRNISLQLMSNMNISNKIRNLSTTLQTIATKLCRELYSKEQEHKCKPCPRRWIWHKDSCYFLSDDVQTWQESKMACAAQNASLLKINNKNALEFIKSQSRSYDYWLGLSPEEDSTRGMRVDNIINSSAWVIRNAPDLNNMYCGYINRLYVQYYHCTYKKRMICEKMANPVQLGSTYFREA

[3] = biological target: T3, Human CD16a V158 (FcγRIIIa V158) (human, UniProt P08637 17-208, biotinylated (site not stated)); experiment: SPR; biotinylated CD16a V158 captured on SA chip, TriNKET as analyte; 1:1 kinetic fit; after 4 wks 40 C in HST pH 6.0, n=3
T3 construct: V158 is the allele name in mature numbering; also called hCD16aV; hCD16a V158

Human CD32a H131 = biological target: T4, Human CD32a H131 (human, UniProt P12318 36-218, limits assumed, biotinylated); experiment: SPR, steady state fit; average for AB0192
T4 construct: Bought recombinant receptor; also called hFcγRIIa H131
T4 sequence (looked up): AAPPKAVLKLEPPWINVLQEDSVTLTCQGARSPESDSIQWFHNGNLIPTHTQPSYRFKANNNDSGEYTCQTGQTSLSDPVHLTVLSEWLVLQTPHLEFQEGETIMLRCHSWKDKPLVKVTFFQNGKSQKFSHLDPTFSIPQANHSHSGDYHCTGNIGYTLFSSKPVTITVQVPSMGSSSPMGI

Human CD32a R131 = biological target: T5, Human CD32a R131 (human, UniProt P12318 36-218, limits assumed, biotinylated); experiment: SPR, steady state fit; average for AB0192
T5 construct: Bought recombinant receptor; also called hFcγRIIa R131
T5 sequence (looked up): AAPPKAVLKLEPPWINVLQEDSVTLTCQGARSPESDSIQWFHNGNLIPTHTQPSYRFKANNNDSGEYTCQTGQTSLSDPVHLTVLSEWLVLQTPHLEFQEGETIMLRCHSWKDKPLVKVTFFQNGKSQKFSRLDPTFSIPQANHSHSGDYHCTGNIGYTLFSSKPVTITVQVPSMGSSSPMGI

mFc-hNKG2D [4] = biological target: T6, mFc-hNKG2D (human, UniProt P26718 73-216); experiment: SPR, 37 C, mFc-hNKG2D captured, 1:1 kinetic fit
T6 construct: extracellular domain; Recombinant mFc-tagged NKG2D dimer, made in house; also called human NKG2D; not shown: mouse Fc tag
T6 sequence (looked up): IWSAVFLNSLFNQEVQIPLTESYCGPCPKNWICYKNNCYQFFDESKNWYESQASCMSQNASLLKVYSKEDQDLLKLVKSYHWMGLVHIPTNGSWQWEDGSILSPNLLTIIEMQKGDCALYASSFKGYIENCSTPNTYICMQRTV

Human CLEC12A-His [5] = biological target: T7, Human CLEC12A-His (human, UniProt Q5QGZ9 65-265); experiment: SPR; sample after 4 weeks at 40 C in CST pH 7.0
T7 construct: Recombinant soluble protein made in house; also called hCLEC12A-His; hCLEC12A; not shown: His tag
T7 sequence: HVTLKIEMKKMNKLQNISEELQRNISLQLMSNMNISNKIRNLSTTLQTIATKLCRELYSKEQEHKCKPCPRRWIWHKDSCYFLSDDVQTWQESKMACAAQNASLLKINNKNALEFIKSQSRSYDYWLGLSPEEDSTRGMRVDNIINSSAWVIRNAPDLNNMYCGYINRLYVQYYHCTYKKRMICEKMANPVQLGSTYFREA

mFc-hNKG2D [6] = biological target: T6, mFc-hNKG2D; experiment: SPR; sample after 4 weeks at 40 C in CST pH 7.0
Human CD16a V158 = biological target: T8, Human CD16a V158 (human, UniProt P08637 17-208, biotinylated); experiment: SPR; sample after 4 weeks at 40 C in CST pH 7.0
T8 construct: Bought recombinant receptor; also called hCD16a (V158); hFcγRIIIa V158

[7] = biological target: T9, recombinant human CLEC12A-His (human, UniProt Q5QGZ9 65-265); experiment: SPR 37C
T9 construct: also called hCLEC12A-His; hCLEC12A
T9 sequence: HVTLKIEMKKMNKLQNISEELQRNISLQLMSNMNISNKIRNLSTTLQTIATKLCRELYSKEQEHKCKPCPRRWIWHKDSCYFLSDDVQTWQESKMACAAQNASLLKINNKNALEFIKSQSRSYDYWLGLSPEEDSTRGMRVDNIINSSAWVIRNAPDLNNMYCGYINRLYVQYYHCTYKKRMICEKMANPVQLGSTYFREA

T3 sequence (P08637 17-208 F176V limits assumed): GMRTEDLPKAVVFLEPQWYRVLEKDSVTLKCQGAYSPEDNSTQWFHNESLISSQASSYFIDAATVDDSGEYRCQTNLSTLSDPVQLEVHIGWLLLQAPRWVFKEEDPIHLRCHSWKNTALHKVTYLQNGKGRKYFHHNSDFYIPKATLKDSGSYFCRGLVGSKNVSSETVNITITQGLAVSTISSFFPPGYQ
T8 sequence (P08637 17-208 F176V limits assumed): as above

B1: F3'-1602 TriNKET (bispecific antibody, human IgG1, kappa)
chain: QLQLQESGPGLVKPSETLSLTCTVSGFSLTNYGLHWIRQPPGKCLEWIGVIWSGGKTDYNPSLKSRVTISKDTSKNQFSLKLSSVQAADTAVYYCAKYDYDDSLDYWGQGTLVTVSSGGGGSGGGGSGGGGSGGGGSDIQMTQSPSSLSASVGDRVTITCHASQNINFWLSWYQQKPGKAPKLLIYEASNLHTGVPSRFSGSGSGTRFTLTISSLQPEDIATYYCQQSHSYPLTFGCGTKLEIKGSDKTHTCPPCPAPELLGGPSVFLFPPKPKDTLMISRTPEVTCVVVDVSHEDPEVKFNWYVDGVEVHNAKTKPREEQYNSTYRVVSVLTVLHQDWLNGKEYKCKVSNKALPAPIEKTISKAKGQPREPRVYTLPPCRDELTKNQVSLTCLVKGFYPSDIAVEWESNGQPENNYKTTPPVLVSDGSFTLYSKLTVDKSRWQQGNVFSCSVMHEALHNHYTQKSLSLSPG
heavy: EVQLVESGGGLVKPGGSLRLSCAASGFTFSSYSMNWVRQAPGKGLEWVSSISSSSSYIYYADSVKGRFTISRDNAKNSLYLQMNSLRAEDTAVYYCARGAPIGAAAGWFDPWGQGTLVTVSSASTKGPSVFPLAPSSKSTSGGTAALGCLVKDYFPEPVTVSWNSGALTSGVHTFPAVLQSSGLYSLSSVVTVPSSSLGTQTYICNVNHKPSNTKVDKKVEPKSCDKTHTCPPCPAPELLGGPSVFLFPPKPKDTLMISRTPEVTCVVVDVSHEDPEVKFNWYVDGVEVHNAKTKPREEQYNSTYRVVSVLTVLHQDWLNGKEYKCKVSNKALPAPIEKTISKAKGQPREPQVCTLPPSRDELTENQVSLTCLVKGFYPSDIAVEWESNGQPENNYKTTPPVLDSDGSFFLYSWLTVDKSRWQQGNVFSCSVMHEALHNHYTQKSLSLSPG
light: DIQMTQSPSSVSASVGDRVTITCRASQGISSWLAWYQQKPGKAPKLLIYAASSLQSGVPSRFSGSGSGTDFTLTISSLQPEDFATYYCQQGVSFPRTFGGGTKVEIKRTVAAPSVFIFPPSDEQLKSGTASVVCLLNNFYPREAKVQWKVDNALQSGNSQESVTEQDSKDSTYSLSSTLTLSKADYEKHKVYACEVTHQGLSSPVTKSFNRGEC
notes: Trispecific F3' format: CLEC12A scFv-Fc paired with NKG2D Fab-Fc; Stressed and control samples of the stability studies are the same molecule; also called AB0237
mFc-hNKG2D [1]
  koff: 0.13 s⁻¹
  kon: 180000 M⁻¹ s⁻¹
Human CLEC12A-His [2]
  Kd: 1.1 nM
  koff: 0.000858 s⁻¹
  kon: 799000 M⁻¹ s⁻¹
[3]
  Kd: 201 nM
  koff: 0.0165 s⁻¹
  kon: 82400 M⁻¹ s⁻¹

B2: AB0192 TriNKET (other)
chain: EVQLVESGGGVVQPGGSLRLSCAASGFTFNAFGMHWVRQAPGKCLEWVAFISSGSTSIYYANTVKGRFTISRDNSKNTLYLQMNSLRAEDTAVYYCARDGYPTGGAMDYWGQGTSVTVSSGGGGSGGGGSGGGGSGGGGSDIQMTQSPSSLSASVGDRVTITCKASQDIYNYLSWFQQKPGKAPKPLIYRANILVSGVPSRFSGSGSGQDYTFTISSLQPEDIATYYCLQFDAFPFTFGCGTKLEIKGSDKTHTCPPCPAPELLGGPSVFLFPPKPKDTLMISRTPEVTCVVVDVSHEDPEVKFNWYVDGVEVHNAKTKPREEQYNSTYRVVSVLTVLHQDWLNGKEYKCKVSNKALPAPIEKTISKAKGQPREPRVYTLPPCRDELTKNQVSLTCLVKGFYPSDIAVEWESNGQPENNYKTTPPVLVSDGSFTLYSKLTVDKSRWQQGNVFSCSVMHEALHNHYTQKSLSLSPG
heavy: EVQLVESGGGLVKPGGSLRLSCAASGFTFSSYSMNWVRQAPGKGLEWVSSISSSSSYIYYADSVKGRFTISRDNAKNSLYLQMNSLRAEDTAVYYCARGAPIGAAAGWFDPWGQGTLVTVSSASTKGPSVFPLAPSSKSTSGGTAALGCLVKDYFPEPVTVSWNSGALTSGVHTFPAVLQSSGLYSLSSVVTVPSSSLGTQTYICNVNHKPSNTKVDKKVEPKSCDKTHTCPPCPAPELLGGPSVFLFPPKPKDTLMISRTPEVTCVVVDVSHEDPEVKFNWYVDGVEVHNAKTKPREEQYNSTYRVVSVLTVLHQDWLNGKEYKCKVSNKALPAPIEKTISKAKGQPREPQVCTLPPSRDELTENQVSLTCLVKGFYPSDIAVEWESNGQPENNYKTTPPVLDSDGSFFLYSWLTVDKSRWQQGNVFSCSVMHEALHNHYTQKSLSLSPG
light: DIQMTQSPSSVSASVGDRVTITCRASQGISSWLAWYQQKPGKAPKLLIYAASSLQSGVPSRFSGSGSGTDFTLTISSLQPEDFATYYCQQGVSFPRTFGGGTKVEIKRTVAAPSVFIFPPSDEQLKSGTASVVCLLNNFYPREAKVQWKVDNALQSGNSQESVTEQDSKDSTYSLSSTLTLSKADYEKHKVYACEVTHQGLSSPVTKSFNRGEC
notes: the condition stands under assay; also called AB0192 Lot AB0192-005
Human CD32a H131
  Kd: 1010 nM
Human CD32a R131
  Kd: 1400 nM
mFc-hNKG2D [4]
  koff: 0.143 s⁻¹ and 0.153 s⁻¹
  kon: 186000 M⁻¹ s⁻¹ and 196000 M⁻¹ s⁻¹ and 181000 M⁻¹ s⁻¹
Human CLEC12A-His [5]
  Kd: 1.96 nM
  koff: 0.00147 s⁻¹
  kon: 749000 M⁻¹ s⁻¹
mFc-hNKG2D [6]
  Kd: 653 nM
  koff: 0.121 s⁻¹
  kon: 185000 M⁻¹ s⁻¹
Human CD16a V158
  Kd: 174 nM
  koff: 0.0194 s⁻¹
  kon: 111000 M⁻¹ s⁻¹

B3: F3'-1602 TriNKET (other)
chain: QLQLQESGPGLVKPSETLSLTCTVSGFSLTNYGLHWIRQPPGKCLEWIGVIWSGGKTDYNPSLKSRVTISKDTSKNQFSLKLSSVQAADTAVYYCAKYDYDDSLDYWGQGTLVTVSSGGGGSGGGGSGGGGSGGGGSDIQMTQSPSSLSASVGDRVTITCHASQNINFWLSWYQQKPGKAPKLLIYEASNLHTGVPSRFSGSGSGTRFTLTISSLQPEDIATYYCQQSHSYPLTFGCGTKLEIKGSDKTHTCPPCPAPELLGGPSVFLFPPKPKDTLMISRTPEVTCVVVDVSHEDPEVKFNWYVDGVEVHNAKTKPREEQYNSTYRVVSVLTVLHQDWLNGKEYKCKVSNKALPAPIEKTISKAKGQPREPRVYTLPPCRDELTKNQVSLTCLVKGFYPSDIAVEWESNGQPENNYKTTPPVLVSDGSFTLYSKLTVDKSRWQQGNVFSCSVMHEALHNHYTQKSLSLSPG
heavy: EVQLVESGGGLVKPGGSLRLSCAASGFTFSSYSMNWVRQAPGKGLEWVSSISSSSSYIYYADSVKGRFTISRDNAKNSLYLQMNSLRAEDTAVYYCARGAPIGAAAGWFDPWGQGTLVTVSSASTKGPSVFPLAPSSKSTSGGTAALGCLVKDYFPEPVTVSWNSGALTSGVHTFPAVLQSSGLYSLSSVVTVPSSSLGTQTYICNVNHKPSNTKVDKKVEPKSCDKTHTCPPCPAPELLGGPSVFLFPPKPKDTLMISRTPEVTCVVVDVSHEDPEVKFNWYVDGVEVHNAKTKPREEQYNSTYRVVSVLTVLHQDWLNGKEYKCKVSNKALPAPIEKTISKAKGQPREPQVCTLPPSRDELTENQVSLTCLVKGFYPSDIAVEWESNGQPENNYKTTPPVLDSDGSFFLYSWLTVDKSRWQQGNVFSCSVMHEALHNHYTQKSLSLSPG
light: DIQMTQSPSSVSASVGDRVTITCRASQGISSWLAWYQQKPGKAPKLLIYAASSLQSGVPSRFSGSGSGTDFTLTISSLQPEDFATYYCQQGVSFPRTFGGGTKVEIKRTVAAPSVFIFPPSDEQLKSGTASVVCLLNNFYPREAKVQWKVDNALQSGNSQESVTEQDSKDSTYSLSSTLTLSKADYEKHKVYACEVTHQGLSSPVTKSFNRGEC
notes: CLEC12A scFv-Fc, NKG2D A49MI Fab-Fc, human IgG1 Fc; also called AB0237
[7]
  Kd: 0.58 nM and 0.59 nM and 0.57 nM and 0.6 nM
  koff: 0.000494 s⁻¹ and 0.000489 s⁻¹ and 0.000499 s⁻¹
  kon: 854000 M⁻¹ s⁻¹ and 833000 M⁻¹ s⁻¹ and 863000 M⁻¹ s⁻¹ and 826000 M⁻¹ s⁻¹
